The target of this test is murine CCR6 expressed on HEK293 cells (HEK293/CCR6) (murine) (UniProt O54689). The test is described as follows: cell-based or functional assay.

Chemotaxis of murine bone marrow derived immature DC, peak activity data for 2 substances are collected here from patent US20050095257A1.

Substance “mDF2βsFv38, murine β-defensin 2 fusion with sFv38 (from UniProt P82020 21-71)” showed a chemotaxis of murine bone marrow derived immature DC, peak activity of 10 ng/mL. Then “mDF3βsFv38, murine β-defensin 3 fusion with sFv38 (from UniProt Q9WTL0 23-63)”, with 100 ng/mL.
